Positions count from the first letter of the chain named. In names and notes the source's numbering stands. One block for each molecule: values may come before it.
Legend:
FAM171A2 Ecto-AP (human) = FAM171A2 Ecto-AP (human) (UniProt A8MVW0); assay: ELISA
[1] = target: FAM171A2 ectodomain (K30-T315), Fc cleaved off (human) (UniProt A8MVW0); assay: SEC-MALS
[2] = target: FAM171A2 ectodomain (K30-T315), Fc cleaved off (human) (UniProt A8MVW0); assay: AUC
[3] = target: FAM171A2 ectodomain (K30-T315), Fc cleaved off (human) (UniProt A8MVW0); assay: SEC-SAXS
AUC [4] = target: the molecule itself; assay: AUC
SEC-MALS = target: the molecule itself; assay: SEC-MALS
AUC [5] = target: the molecule itself; assay: AUC; remark: listed apart in the source
FAM171A1 Ecto-AP = target: T1, FAM171A1 Ecto-AP (human, UniProt Q5VUB5 23-303); assay: ELISA
T1 sequence: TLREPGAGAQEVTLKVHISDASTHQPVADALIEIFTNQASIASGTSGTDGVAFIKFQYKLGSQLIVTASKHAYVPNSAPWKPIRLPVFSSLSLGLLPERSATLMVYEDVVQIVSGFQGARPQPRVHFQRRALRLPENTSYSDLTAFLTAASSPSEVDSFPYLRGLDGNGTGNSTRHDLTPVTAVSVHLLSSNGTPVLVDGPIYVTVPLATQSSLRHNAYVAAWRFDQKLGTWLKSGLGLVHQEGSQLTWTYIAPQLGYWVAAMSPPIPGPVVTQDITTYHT

SEC = target: the molecule itself; assay: SEC

Kd (FAM171A2 Ecto-AP (human)): 389 nM
Molecule: FAM171A2 Ecto-Fc (from UniProt A8MVW0 30-315) (Fc fusion)

stoichiometry N [1]: 3
percent of the mixture as trimer [2]: 75%
stoichiometry N [2]: 3
stoichiometry N [3]: 3
Molecule: FAM171A2 ectodomain (K30-T315), Fc cleaved off (from UniProt A8MVW0 30-315) (domain or fragment)

B1: FAM171A1 ectodomain (T23-T303), Fc cleaved off (domain or fragment)
chain: T1 sequence
modifications: four N-linked glycosylation sites occupied by Man5GlcNAc2 (from HEK293S GnTI- cells)
stoichiometry N (AUC [4]): 2.7 monomers
stoichiometry N (SEC-MALS): 3
stoichiometry N (AUC [5]): 2.6 monomers

Kd (FAM171A1 Ecto-AP): 9 ± 2 nM
B2: FAM171A1 Ecto-Fc (Fc fusion)
chain: T1 sequence

B3: FAM171A1 ectodomain Y241S/L255N (domain or fragment)
chain: T1 sequence with Y219S, L233N
modifications: two introduced N-linked glycosylation sites
stoichiometry N (SEC): 3

B4: FAM171A1 ectodomain L255N (domain or fragment)
chain: T1 sequence with L233N
modifications: introduced N-linked glycosylation site
stoichiometry N (SEC): 3

B5: FAM171A1 ectodomain Y241S (domain or fragment)
chain: T1 sequence with Y219S
modifications: introduced N-linked glycosylation site
stoichiometry N (SEC): 3
